Experimental findings from US20120172306A1, “Use of HASF as a Protective Agent Against Ischemic Tissue Damage” (Duke University, priority 2009, published 2012) are described below.

One data set has as its system H9C2 cardiac myoblasts. Nature of the data set: Annexin V/PI staining of H2O2 induced apoptosis. The following applies: 10 nM, 30 min pre-incubation, 100 μM H2O2 2 h. It is filed as cell-based, rat. How it is done:
FIG. 2A is a bar graph showing % apoptosis. H9C2 cardiac myoblasts were pre-incubated ±10 nM of HASF recombinant protein for 30 min, and then challenged with 100 μM of H2O2 for 2 h. Apoptosis was quantified on a flow cytometer with Annexin V and Propidium Iodine (PI) staining. The sum of Annexin V positive cells+Annexin V/PI double positive cells is presented as percentage (%) of total cells. Human recombinant IGF protein was used as a positive control.
Rat cardiac myoblasts-H9C2 cells were obtained from ATCC and cultured in DMEM medium containing 10% of FBS, supplemented with 2 mM of L-glutamine, 100 U/ml of penicillin and 100 μg/ml of streptomycin (Invitrogen). Cells were seeded one day before at 1×10^5/well in 6-well plates. The following day, the cells were treated for 30 min with 10 nM of HASF the recombinant protein, the MBP or PBS were used as controls. Then the cells were challenged with 100 μM of H2O2 for 2 h. The attached and floating cells were collected. H2O2 induced apoptosis was then analyzed on a flow cytometer for Annexin V/Propidium Iodine double staining with the Vybrant Apoptosis Assay Kit #2 (Invitrogen).

For the next data set, the system named is adult rat cardiomyocytes. Nature of the data set: DNA fragmentation and apoptosis-related protein western blotting. In kind it is cell-based. The protocol: FIGS. 7A-C are a series of photographs showing the effects of HASF in cytochrome c, Bcl2, Bax and DNA degradation. In FIG. 7A, Adult rat cardiomyocytes were treated with +10 nM of HASF for 30 min, and then challenged with 100 μM of H2O2 for 6 h. Mitochondrial fraction or cytosolic fraction or total cell lysate were extracted and separated in 15% SDS-PAGE and transferred to nitrocellulose membrane and probed with mouse anti-Cytochrome C monoclonal antibody. Lane 1-2, —H2O2 control; lane 3-4, +H2O2 control; lane 5-8, four individual samples of +HASF recombinant protein and then +H2O2. In FIG. 7B, Western blot of mitochondrial fractions with Bcl2 and Bax antibodies respectively. Lane 1, —H2O2control; lane 2, +H2O2control; lane 3-6, four individual samples of +HASF and then +H2O2. In FIG. 7C, adult rat cardiomyocytes were treated +10 nM of HASF for 30 min, and then challenged with 100 μM of H2O2 for overnight (˜15 h). Genomic DNA was extracted and separated on 1% agarose gel. H2O2 induced apoptosis in cardiomyocytes was companied by typical DNA fragmentation (laddering) at late-stage apoptosis. Pre-incubation of cardiomyocytes with 10 nM of this HASF recombinant protein inhibited the DNA laddering to a noticeable extends. Lane 1, DNA marker; lane 2, —H2O2control; lane 3-4, +H2O2; lane 5-6, +HASF recombinant protein and then +H2O2.
Adult rat ventricular cardiomyocytes were isolated from 6 weeks old female Sprague-Dawley rat (Harlan World Headquarters, Indianapolis, Ill., USA) hearts by enzymatic digestion and were seeded in (6-well) plates or Delta T culture dishes (Bioptechs, Inc., Pa.) pre-coated with 1 μg/cm2 of laminin (Sigma) at 5×10^4/well and cultured overnight in serum-free M199 medium (Sigma), supplemented with 2 mM of L-carnitine, 5 mM of creatine, 5 mM of taurine, 0.2% of albumin, 100 U/ml of penicillin and 100 μg/ml of streptomycin. Cells were briefly treated without or with PKC inhibitor (with vehicle saponin), then recombinant protein HASF (10 or 100 nM) was added into cells for 30 min, with PBS used as vehicle controls. The cells were challenged with H2O2 for various time points. For the Caspase assays, cardiomyocytes were scraped off plates in lysis buffer and were analyzed by a luminescent plate reader with Caspase-Glo 3/7 and or Caspase-Glo 9 kits (Promega); and for DNA fragmentation, genomic DNA from cardiomyocytes was extracted and separated on 1% agarose gel electrophoreses, with Apoptotic DNA Ladder Extraction Kit (BioVision), according to manufacturers' instructions. […]

The test system of data set [1] is rat myocardial infarction. Nature of the data set: In vivo ischemia/reperfusion injury, infarct size (TTC/Evans Blue). The settings on record: 1 μg intramyocardial injection, 30 min ischemia, 24 h reperfusion. The protocol: FIG. 5A is a series of photographs and a bar graph showing infarct area. Rats were randomly divided into PBS control group and HASF injected group, n=10 for each group. The reperfusion injury model was achieved by 30 min coronary ligation with the immediate injection of vehicle PBScontrol or 1 μg of […] recombinant protein into the myocardium area below ligation suture, followed by loosening of the ligation suture to achieve reperfusion injury. […] The mean of % of infarct area for all sections of each heart was calculated blindly for comparisons using ImageJ computer software. Representative photos from each group are shown.
Female Sprague-Dawley rats were used for all in vivo experiments. A midsternal thoracotomy was performed to expose the anterior surface of the heart after anesthesia. […]
For analysis of infarct size, 24 h after reperfusion, the LAD was re-ligated and ˜300 μl of 1% Evans Blue in PBS (pH 7.4) was retrogradely infused into the heart in a 2-3 min period to delineate the non-ischemic area. […] Area at risk (AAR) was calculated as the left ventricular total area excluding Evans Blue dye positive area, and % infarct area was calculated as the % of infarct area/AAR. The mean of % of infarct area for all sections of each heart was calculated blindly for comparisons using ImageJ computer software, with 10 rats in each group.

B1: HASF: Hypoxia regulated Akt MSC Factor, secreted protein encoded by C3orf58; recombinant human protein without N-signal sequence, SEQ ID NO:1 or 2 (protein, UniProt Q8NDZ4 36-430, looked up)
Divergent protein kinase …: LASWQRNELTDRRFLQLNKCPACFGTSWCRRFLNGQVVFEAWGRLRLLDFLNVKNVYFAQYGEPREGGRRRVVLKRLGSQRELAQLDQSICKRATGRPRCDLLQAMPRTEFARLNGDVRLLTPEAVEGWSDLVHCPSQRLLDRLVRRYAETKDSGSFLLRNLKDSERMQLLLTLAFNPEPLVLQSFPSDEGWPFAKYLGACGRMVAVNYVGEELWSYFNAPWEKRVDLAWQLMEIAEQLTNNDFEFALYLLDVSFDNFAVGPRDGKVIIVDAENVLVADKRLIRQNKPENWDVWYESKFDDCDKEACLSFSKEILCARATVDHNYYAVCQNLLSRHATWRGTSGGLLHDPPSEIAKDGRLEALLDECANPKKRYGRFQAAKELREYLAQLSNNVR
modifications: 6xHis tag
With B1, the “decrease of H2O2 induced apoptosis (Annexin V/PI staining)” value with H9C2 cardiac myoblasts is around 50%. Besides, in the data set on adult rat cardiomyocytes (10 nM for 30 min, 100 μM H2O2), the “mitochondrial anti-apoptotic Bcl-2 protein level” value was “increased levels”. For the same molecule, the “cytochrome C release into the cytosol” value with adult rat cardiomyocytes (10 nM for 30 min, 100 μM H2O2 6 h) is “prevention of cytochrome C release into the cytosol”. In addition, the DNA fragmentation result in the data set with adult rat cardiomyocytes (10 nM for 30 min, 100 μM H2O2 overnight (~15 h)) was “reduction of DNA fragmentation”. For the same molecule, the “translocation of Bax protein from cytosol into mitochondria” value with adult rat cardiomyocytes (H2O2 induced apoptosis) is listed as “did not prevent”. Moreover, in data set [1], the “reduction in the infarct size” value is on record as around 58%.
